Experimental findings from article PMC6265255 are described below.

For this assay, the target named is human FcγRIIA (R131 variant) expressed on Jurkat cells (UniProt P12318). Briefly: FLIM. The following applies: Jurkat cells co-expressing FcγRIIA and Mac-1; donor anti-FcγRIIA IV.3 AF488 + acceptor anti-Mac-1 (CD11b) ICRF44 AF568; n = 3 experiments.
UniProt P12318, sequence (P12318 34-217, change not shown): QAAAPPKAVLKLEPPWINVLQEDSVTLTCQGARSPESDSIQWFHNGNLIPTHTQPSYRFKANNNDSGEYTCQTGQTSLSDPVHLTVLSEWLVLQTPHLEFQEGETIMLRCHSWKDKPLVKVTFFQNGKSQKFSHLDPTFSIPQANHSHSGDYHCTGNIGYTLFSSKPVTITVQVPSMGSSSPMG

As to “human Mac-1 (CD11b/CD18), wild type, expressed on Jurkat cells (from UniProt P11215;P05107) E253-R261 (… replaced with … of CD11a)”, the other: FcγRIIA fluorescence lifetime tm (donor + acceptor) was 1830 ps.
